Results: the supplement of paper PMC10567573

B1: HMOX1 (parent)
chain: YHIYVALEEEIERNKESPVFAPVY

Variants of: B1
Assay: protein stability index of a GFP-peptide fusion (GPS, HEK-293T) (PSI 1-6); higher = more stable
Settings: c terminus: a fixed tail appended
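Note: lentivirally expressed fusions sorted by FACS into six bins by GFP to DsRed ratio, PSI derived from sequencing read proportions per bin multiplied by bin number.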

Protein stability index of substitutions, site by site:
F20: V 3.06 | W 2.41 | P 2.82 | R 2.95 | Y 2.19 | K 2.27 | C 3.24 | Q 2.42 | M 2.81 | S 2.78 | E 2.52 | L 2.66 | A 2.41 | H 2.47 | I 2.25 | G 3.15 | N 2.78 | D 2.95 | T 2.57
S17: W 2.65 | F 1.88 | T 1.69 | K 2.14 | Y 1.26 | E 1.85 | C 1.86 | V 1.65 | Q 1.57 | P 2.02 | D 2.3 | G 2.29 | I 2.46 | N 2.05 | H 1.83 | R 2.2 | L 2.19 | M 1.93 | A 2.27
V19: E 2.93 | G 2.37 | A 2.3 | P 2.35 | M 2.24 | T 2.32 | Y 1.46 | Q 2.14 | D 2.7 | S 2.15 | C 1.81 | K 1.99 | L 1.7 | N 2.69 | R 3.44 | I 1.72 | F 1.84 | W 1.57 | H 2.13
E16: H 2.08 | Q 2.11 | R 1.8 | K 2.13 | I 1.42 | N 2.25 | G 2.04 | L 2.32 | W 2.14 | D 1.59 | Y 1.88 | C 1.57 | A 2.67 | M 1.8 | V 2.14 | F 2.84 | T 2.12 | S 2.04 | P 2.23
P18: W 2.31 | H 2.23 | T 2.06 | I 1.49 | A 2.14 | G 2.46 | K 2.03 | L 1.53 | D 2.3 | M 1.75 | S 2.13 | V 1.59 | R 1.98 | C 1.85 | E 2.59 | Q 1.61 | N 2.36 | F 1.79 | Y 1.89
N14: R 2.32 | V 1.49 | S 2.54 | T 2.81 | G 1.98 | K 2.12 | D 2.06 | L 2.05 | M 2.31 | A 1.72 | C 1.32 | F 2.15 | H 2.14 | E 1.98 | Y 1.45 | Q 2.62 | I 1.26
A21: H 2.06 | D 2.91 | M 1.99 | L 1.58 | V 1.76 | R 2.2 | S 2.02 | I 1.87 | Q 2.41 | P 2.06 | E 2.41 | F 2.21 | C 1.72 | G 2.43 | N 2.31 | K 2.8 | T 2
E12: V 1.93 | W 2.27
R13: A 1.34 | I 2.02 | Q 1.54 | F 2.97 | V 2.02 | D 1.52 | W 2.25 | G 1.55 | E 1.34 | T 1.19 | H 1.75 | L 1.22 | S 2.23 | N 1.23 | M 1.4 | P 2.11 | C 1.39 | K 2.14
K15: F 2.13 | I 1.87 | N 1.7 | A 2.92 | L 2.22 | R 1.38 | Q 2.59 | W 2.21 | S 1.98 | Y 2.13 | H 1.42 | C 2.2 | D 1.57 | G 1.9 | T 1.36 | E 1.37 | V 1.83 | P 1.53
